# Data reported in patent US20240376151A1, “STAPLED PEPTIDES AND METHODS THEREOF” (FOG PHARMACEUTICALS, INC., priority 2022, published 2024).
# Target: T1, beta-catenin (Homo sapiens, UniProt P35222)
# T1 construct: made in house; host or cells: E. coli BL21 (DE3) pLysS
# T1 sequence (P35222 134-665): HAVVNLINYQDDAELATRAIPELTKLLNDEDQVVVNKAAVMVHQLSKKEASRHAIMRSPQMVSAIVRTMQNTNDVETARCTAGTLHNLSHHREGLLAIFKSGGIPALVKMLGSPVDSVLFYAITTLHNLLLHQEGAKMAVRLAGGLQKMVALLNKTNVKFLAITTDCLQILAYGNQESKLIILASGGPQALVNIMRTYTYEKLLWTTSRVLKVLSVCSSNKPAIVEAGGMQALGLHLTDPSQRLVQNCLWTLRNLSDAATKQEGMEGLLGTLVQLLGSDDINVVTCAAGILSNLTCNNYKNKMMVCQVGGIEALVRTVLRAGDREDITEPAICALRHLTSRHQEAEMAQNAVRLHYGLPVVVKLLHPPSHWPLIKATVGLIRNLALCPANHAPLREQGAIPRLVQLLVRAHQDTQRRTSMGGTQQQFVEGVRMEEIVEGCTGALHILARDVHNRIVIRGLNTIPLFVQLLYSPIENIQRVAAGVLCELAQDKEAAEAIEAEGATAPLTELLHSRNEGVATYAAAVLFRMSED
# Test: Phage Library Screening with NGS, beta-catenin
# Format: binding
# Settings: for Target Concentration 10 (phage screen NGS readout): beta-catenin target concentration 10; for Target Concentration 10 (phage screen NGS readout) / Target Concentration 30 (phage screen NGS readout) / Target Concentration 100 (phage screen NGS readout) / Target Concentration 300 (phage screen NGS readout): no competitor; for Target Concentration 30 (phage screen NGS readout): beta-catenin target concentration 30; for Target Concentration 100 (phage screen NGS readout): beta-catenin target concentration 100; for Target Concentration 300 (phage screen NGS readout): beta-catenin target concentration 300; for Target Concentration 1000 (phage screen NGS readout): beta-catenin target concentration 1000
Sequence,Target Concentration BLANK (phage screen NGS readout) (first column),Target Concentration BLANK (phage screen NGS readout) (fourth column),Target Concentration BLANK (phage screen NGS readout) (second column),Target Concentration BLANK (phage screen NGS readout) (third column),Target Concentration 10 (phage screen NGS readout),Target Concentration 30 (phage screen NGS readout),Target Concentration 100 (phage screen NGS readout),Target Concentration 300 (phage screen NGS readout),Target Concentration 1000 (phage screen NGS readout) (first 1000 column),Target Concentration 1000 (phage screen NGS readout) (second 1000 column)
DPATWHCDWAAEHCELL,0,0,0,0,2,10,81,147,203,280
DPAVDECIIAAHICHIW,0,0,0,0,0,4,21,44,31,66
DPAVEDCVLAAHVCAWF,0,0,0,0,0,2,47,39,49,73
DPAVFECSLAAIDCLQI,0,0,0,0,0,0,10,28,10,81
DPAVFMCYEAAFECQYF,0,0,2,1,0,0,0,1,2,7
DPAVHRCFWAAEHCDLI,0,0,2,0,0,2,11,86,95,62
DPAVIACYDAAFVCEYF,0,0,1,0,0,0,0,0,3,3
DPAVIQCYQAAFHCDYQ,0,0,0,3,0,0,0,13,12,30
DPAVLDCHIAALDCHAH,0,0,0,0,0,1,0,10,39,3
DPAVLECHIAAWECNHT,0,0,0,0,0,1,22,67,140,55
DPAVLECHIAAWECRMD,0,0,0,0,0,0,24,83,91,45
DPAVLQCYEAAFICEYM,0,0,0,0,0,0,1,6,4,5
DPAVMACYEAAFQCAYW,0,0,0,1,0,0,0,4,12,0
DPAVQDCEWAAIYCELI,0,1,1,0,0,9,10,158,104,157
DPAVVECYEAAYTCQYI,0,0,0,0,0,0,0,0,0,13
